Test system: MS2 coat protein
Assay: apparent KD of MS2 coat protein; designed switch direction (-1 OFF switch, 1 ON switch): -1; higher = weaker reporter binding
How it was run: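 The buffer was Tris-HCl pH 7.5 with KCl, MgCl2, BSA, DTT, tRNA and Tween-20. In it, SNAP-549-labelled MS2 coat protein was titrated in doubling steps from 0.7 or 1.5 nM to 3 µM over chip-bound RNA switches transcribed by stalled E. coli RNA polymerase on Illumina chips. Apparent KD is the per-design median over clusters of curve fits to normalised fluorescence.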

[1] = Eterna round: R95, input ligand: FMN 200 uM
[2] = Eterna round: R95, input ligand: microRNA oligo, concentration not stated
[3] = Eterna round: R95, input ligand: none
[4] = input ligand: microRNA oligo, concentration not stated

Sequence | apparent KD of MS2 coat protein (input ligand: FMN 200 uM) | apparent KD of MS2 coat protein (input ligand: none) | apparent KD of MS2 coat protein [1] | apparent KD of MS2 coat protein [2] | apparent KD of MS2 coat protein [3] | apparent KD of MS2 coat protein [4]
CGCCUGGGAGGAUAUCCAAUAUAUGACAUGAGGAUCACCCAUGUUUCCACUCGUACCUCCGGAGAAGGCCCGGCGC [Ex5 #30] (Eterna round: R97, puzzle: Exclusion 5) | 23.1 nM | 25.2 nM | – | – | – | –
CGCUAGUCAGGAUAUACGAACAUGUCAAAAGACGUGAAGGGACAUGAGGAUCACCCAUGUAGAAGGGACUAGCC [salish99_ex2_r3_011] (puzzle: Exclusion 2) | – | – | 111 nM | 21.3 nM | 25.8 nM | –
CGCUCACAUGAGGAUCACCCAUGUCAGGAUAUCUCAGUGCAUCCACACGGACGCAUCAAGAGAAGGGACAAAAC [Vinxlusion 3 - Jieux - Exclusion 1] (Eterna round: R97, puzzle: Exclusion 1) | 189 nM | 112 nM | – | – | – | –
CGCUGUUGAGGAUAUGGGCGUGGUUACAUGAGGAUCACCCAUGUGGUGUCGCGCGUGGGUCCAGAAGGCGGCGGUG [-31.8, -28.5 kcal, 16% A] (Eterna round: R97, puzzle: Exclusion 5) | 33.5 nM | 17.5 nM | – | – | – | –
CGGAGCGGCUUAGGAUAUGCUGGAAUAUCCCUGCUCCUCAGAACAUGAGGAUCACCCAUGUACUGGCAGAAGGGAGCUGCAGAG [Inxeedsoxe] (Eterna round: R96, puzzle: Exclusion NG 2) | 21.8 nM | 18.7 nM | – | – | – | 15.4 nM
CGGCACCGAGGAUAUACAUGAGGAUCACCCAUGUUUGUUGGGCCCUUAAGAUCUACGUGUAGAAGGUGGGUCGA [Edaribi] (Eterna round: R96, puzzle: Exclusion 3) | 241 nM | 173 nM | – | – | – | 147 nM
CGGGUGCGGUGAGGAUAUCCGAAAGGAAGUGUAGGAGAAGGCACCAAGAACAUGAGGAUCACCCAUGUGACCUCAUAAGCCCGG [PowerStrip EXNG 1.9] (Eterna round: R96, puzzle: Exclusion NG 1) | 34.9 nM | 406 nM | – | – | – | 254 nM
CGGUAACAUGAGGAUCACCCAUGUGAGGAUAUCGUACGUUCGUCGAUAGACGAUCGUACGAGAAGGCAUGACCG [Mat - Exclusion 1 - Eli Mod - D33] (Eterna round: R97, puzzle: Exclusion 1) | 21.4 nM | 43.9 nM | – | – | – | –
CGGUACUGAGGAUAUACAUGAGGAUCACCCAUGUGUUCAAGCUAGCGUACUGGCAUUAGUAGAAGGCGGUGCUG [JL-ex3-3.21 Brourd mod] (puzzle: Exclusion 3) | – | – | 26.7 nM | 14.6 nM | 16.9 nM | –
CGGUCAUGAGGAUAUCGAGGUUAGUACAUGAGGAUCACCCAUGUUAUCCAGGUGUCGGUUCGAGAAGGCAUGUCCG [LRO-Ex5-12] (puzzle: Exclusion 5) | – | – | – | 287 nM | – | –
CGGUGACAUGAGGAUCACCCAUGUUAGGAUAUGACUUCGUACGCGAACAGGUAUGGAGUCAGAAGGAGCAUCCA [Eternabot (Original) Solution 45] (Eterna round: R97, puzzle: Exclusion 1) | 80.6 nM | 38.4 nM | – | – | – | –
CGGUGCUCGUGGAAACAUGAGGAUCACCCAUGUUGAGUUAGCGAGGAUAUCGGUAACACAUAUCACGAGAAGGCGCGAACCAGA [Ex NG3 #31] (Eterna round: R96, puzzle: Exclusion NG 3) | 23.3 nM | 16 nM | – | – | – | 11.9 nM
CGGUGCUGAGGAUAUACAUGAGGAUCACCCAUGUGUUCCGGCUAGCUGACUGGCGCUUGUAGAAGGCAGUACUG [JL-ex3-2.11 Brourd mod] (puzzle: Exclusion 3) | – | – | – | 16.3 nM | – | –
CGGUGUAACGCAGGAUAUCAUCGCAACUGACGUUGAGAAGGGCGACAUGAGGAUCACCCAUGUGAUUUCUCAAUAUUAUACAUC [Prohibition 84 - Jieux - Exclusion NG 1] (Eterna round: R96, puzzle: Exclusion NG 1) | 212 nM | 59.8 nM | – | – | – | 36.5 nM
CGUACAAGCUUACUAUAGGACAUGAGGAUCACCCAUGUAAUUGACGUUGCAUACAAUCCGUGGAUCCCGGCUGCUCG [Eternabot (L1) Solution 15] (Eterna round: R97, puzzle: Sensor, turn-off variant 1) | 43 nM | 51.6 nM | – | – | – | –
CGUACUAACACGAAAGUGUUAGUACAAUAAGCUUGUGAAACAUGAGGAUCACCCAUGUCCUCAUAAGCUCGUCUUAG [salish99_TOv2_r3_008] (puzzle: Sensor v3, turn-off variant 2) | – | – | 17.1 nM | 388 nM | 14.5 nM | –
CGUACUAACACGAAAGUGUUAGUACAAUAAGCUUGUGAAACAUGAGGAUCACCCAUGUCCUCAUAAGCUCGUCUUAU [salish99_TOv2_r3_007] (Eterna round: R96, puzzle: Sensor v3, turn-off variant 2) | 15.6 nM | 17.9 nM | – | – | – | 486 nM

Sequence | apparent KD of MS2 coat protein (input ligand: FMN 200 uM) | apparent KD of MS2 coat protein (input ligand: none) | apparent KD of MS2 coat protein [1] | apparent KD of MS2 coat protein [2] | apparent KD of MS2 coat protein [3] | apparent KD of MS2 coat protein [4]
CGUACUAACACGAAAGUGUUAGUACAAUAAGCUUGUGAAACAUGAGGAUCACCCAUGUCCUCAUAAGCUCGUCUUAU [salish99_TOv2_r3_007] (puzzle: Sensor v3, turn-off variant 2) | – | – | 17.1 nM | 967 nM | 15.7 nM | –
CGUCAGUGAGGAUAUGGUUUCGUGUACAUGAGGAUCACCCAUGUUUCUUGGGACUAAUUACUAGAAGGCACUGACG [JR_Ex5_Sub033] (Eterna round: R97, puzzle: Exclusion 5) | 21.2 nM | 14 nM | – | – | – | –
CGUCCACUUGAGGAUCACCCAAGUUAGGAUAUCUCCCGGCUCGCAAAUGCAGUCGGUCAGAGAAGGAACCAGGG [Qualaon] (Eterna round: R97, puzzle: Exclusion 1) | 59.6 nM | 26.7 nM | – | – | – | –
CGUGACUCAGGAUAUCUAUUAUAUCACAUGAGGAUCACCCAUGUCCAGCGAAAGCUGGAGGGAGAAGGGAGUCACG [Fiskers Ex 5 - 44] (puzzle: Exclusion 5) | – | – | 52.3 nM | 136 nM | 108 nM | –
CGUGACUCAGGAUAUGGAUUAUAUCACAUGAGGAUCACCCAUGUCCAGCGAAAGCUGGAGUCAGAAGGGAGUCACG [Fiskers Ex 5 - 48] (puzzle: Exclusion 5) | – | – | 34.9 nM | 70.9 nM | 85.4 nM | –
CGUGCGUAUGUGAGGAUAUGCUGGUCCUUGGAUCGGCAGAAGGCACAUGAGGAUCACCCAUGUGGUGUCGUUCU [salish99_Bmod_ex4_092] (puzzle: Brourd's mod of Exclusion 4) | – | – | – | 129 nM | – | –
CGUGCGUAUGUGAGGAUAUGCUGGUCCUUGGCUCGGCAGAAGGCACAUGAGGAUCACCCAUGUGGUGUCGUACC [salish99_Bmod_ex4_061] (puzzle: Brourd's mod of Exclusion 4) | – | – | – | 18.9 nM | – | –
CGUGUACGAGGAUAUAGAUUAGAUGACAUGAGGAUCACCCAUGUGAUCAAUCUAUUUAGUUUAGAAGGUGUACAUG [JR_Ex5_Sub051] (Eterna round: R97, puzzle: Exclusion 5) | 16.1 nM | 12.5 nM | – | – | – | –
CGUGUGCAGUAGGAUAUCCAAAUCCUGUGGAUAGGAGAAGGACUGACAUGAGGAUCACCCAUGUGGGUAAAGAC [Velaxediza] (puzzle: Exclusion 6) | – | – | 48.8 nM | 63.7 nM | 57.7 nM | –
CUAAAUCAUGUAGGAUAUGCGUGGCAAAGCUAUGCAGAAGGACAUGAGGAUCACCCAUGUCAUUCCGUCUGGAAACAGACGGGA [Mat - Exclusion NG 1 - Mod of JL - D53] (Eterna round: R96, puzzle: Exclusion NG 1) | 283 nM | 22.8 nM | – | – | – | 18.1 nM
CUAAAUCAUGUAGGAUAUGCGUGGCGAAGCUAUGCAGAAGGACAUGAGGAUCACCCAUGUCUUUCCGUCUGAGUACAGACGGGA [Mat - Exclusion NG 1 - Mod of JL - D45] (Eterna round: R96, puzzle: Exclusion NG 1) | 155 nM | 18 nM | – | – | – | 16.4 nM
CUAAUACAUGUGAGGAUAUACGACUUGGAGACGGCGUAGAAGGUACAUGAGGAUCACCCAUGUGCGGGCUCCUU [Eternabot (L1) Solution 49] (Eterna round: R97, puzzle: Brourd's mod of Exclusion 4) | 55.9 nM | 27.5 nM | – | – | – | –
CUAGAGUCAGGAUAUACGAGAUCGAAAGAUCGGCGAUCCCUACAUGAGGAUCACCCAUGUAGAAGGGACUCUAG [Mod 11 - Jieux - Exclusion 2] (Eterna round: R97, puzzle: Exclusion 2) | 28.3 nM | 13.8 nM | – | – | – | –
CUAGAUCUUCGGAUCUAGUACAUGAGGAUCACCCAUGUUACGAGCAGAUUUUCAUACAAGCUUUUUGCUCGUCUUAU [Sensor v3 - Turn-off variant 1 - 32] (puzzle: Sensor v3, turn-off variant 1) | – | – | 24.7 nM | 72.4 nM | 27.3 nM | –
CUAGCAAUUGUAGGAUAUCGAUGUGUUUCACAUCGAGAAGGACAUGAGGAUCACCCAUGUGAAAGGAUCGUGAGAUCCAGCUAG [JL ENG1 3.75] (Eterna round: R96, puzzle: Exclusion NG 1) | 96.7 nM | 30.3 nM | – | – | – | 23.1 nM
CUAGCUAUUGUAGGAUAUCGAUGUGUUUCACAUCGAGAAGGACAUGAGGAUCACCCAUGUGAAAGGAUCGUGAGAUCCAGCUAG [JL ENG1 3.76] (Eterna round: R96, puzzle: Exclusion NG 1) | 81.9 nM | 23.5 nM | – | – | – | 18.7 nM

From the supplement of paper PMC9170038
